In IntAct's records for PubMed 31704776:

B1: Meiotic recombination protein REC114 (Homo sapiens), Q7Z4M0 (parent)
chain: MAEAGKVPLSLGLTGGEAAEWPLQRYARCIPSNTRDPPGPCLEAGTAPCPTWKVFDSNEESGYLVLTIVISGHFFIFQGQTLLEGFSLIGSKDWLKIVRRVDCLLFGTTIKDKSRLFRVQFSGESKEQALEHCCSCVQKLAQYITVQVPDGNIQELQLIPGPPRATESQGKDSAKSVPRQPGSHQHSEQQQVCVTAGTGAPDGRTSLTQLAQTLLASEELPHVYEQSAWGAEELGPFLRLCLMDQNFPAFVEEVEKELKKLAGLRN
partner: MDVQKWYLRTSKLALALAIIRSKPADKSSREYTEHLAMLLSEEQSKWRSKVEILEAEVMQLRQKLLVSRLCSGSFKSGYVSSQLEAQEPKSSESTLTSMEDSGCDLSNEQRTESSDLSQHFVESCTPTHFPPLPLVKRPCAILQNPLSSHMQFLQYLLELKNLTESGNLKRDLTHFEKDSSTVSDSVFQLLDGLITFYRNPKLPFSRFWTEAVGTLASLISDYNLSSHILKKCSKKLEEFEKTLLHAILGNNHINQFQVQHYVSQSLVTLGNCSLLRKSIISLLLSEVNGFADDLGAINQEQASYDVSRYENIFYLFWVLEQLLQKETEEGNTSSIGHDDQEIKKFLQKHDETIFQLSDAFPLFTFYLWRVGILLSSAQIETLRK

Variants of: B1
Conditions: with mei4_human MEI4, A8MW99
For MAEAGKVPLSLGLTGGEAAEWPLQRYARCIPSNTRDPPGPCLEAGTAPCPTWKVFDSNEESGYLVLTIVISGHFFIFQGQTLLEGFSLIGSKDWLKIVRRVDCLLFGTTIKDKSRLFRVQFSGESKEQALEHGCSCVQKLAQYITVQVPDGNIQELQLIPGPPRATESQGKDSAKSVPRQPGSHQHSEQQQVCVTAGTGAPDGRTSLTQLAQTLLASEELPHVYEQSAWGAEELGPFLRLCLMDQNFPAFVEEVEKELKKLAGLRN [C133G], the “effect of a mutation on the interaction” value was “with no effect”.
